This is an account of results in the nanobody polyreactivity screen of Harvey et al. (2022).

The nature of the series: yeast display, Sf9 membrane polyspecificity reagent, FACS + sequencing; frameworks hold sequencing errors. In short, it runs like this: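 Synthetic nanobody libraries on Saccharomyces cerevisiae BJ5465 were galactose-induced for 36–48 hours, stained 1 hour at 4 °C with 10% biotinylated, detergent-solubilized Sf9 membrane reagent and enriched on streptavidin microbeads. FACS then separated cells into low and high (top ~1%) gates by anti-HA (expression) and streptavidin (reagent binding) fluorescence. Genes were colony-PCR amplified, MiSeq 2 × 250 sequenced and CDR-length filtered. A clone's polyreactivity label is that of its gate of origin.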
Turning to “QVQLVESGGGLVQAGGSLRLSCAASGITFYRYAMGWYRQAPGKERELVAGITRSGGSTYYADSVKGRFTISRDNAKNTVYLQMNSLKPEDTAVYYCAARIYSFRTKGGYGYWGQGTQVTVSS”, the “polyreactivity (PSR sort gate)” value was “high polyreactivity”.
To “QVQHVESGGGLVQAGRSLRLSCAATGYIFWKNAMGWYRQAPGKERELVAGITIRGGRTYYADSVKGRFTISRDNAKNTVYLQMNSLKPEDTAVYYCAAGTGVSRYRYVYWGQGTQVTVSS” belongs “high polyreactivity”.
Under “QVQLVESGGGLVQAGGSLRLSSAASGSTSYYYVMGWYRQAPGKERELVAAISNGDTTNYADSVKGRITITRDNEKNTVYLQMNSLKPEVTAVDYCAAVYYRSFHDYGYWGQGTQVTVSS” stands “low polyreactivity”.
“QVQLVETGGGLVQAGGSLRLSCAASGITLPKYAMGWYRQAPGKERELVAAISRSSGRTYYADSVKGRFTISRDNAKNTVYLQMNSLKPEDTAVYYCAASHGGYITRYNYWGQGTQVTVSS”: the “polyreactivity (PSR sort gate)” value is reported as “high polyreactivity”.
Regarding “QVQLVESGGGLVQAGGSLRLSCAASGIIFTSYAMGWYRQAPGKERELVAVITGTGGITYYADSVKGRFTISRDNAKNTVYLQMNSLKPEDTAVYYCAAELELREYDYWGQGTQVTVSS”, the “polyreactivity (PSR sort gate)” value is “high polyreactivity”.
Take “QVQLVESGGGLVQAGGSLRLSCAASGRIFAYNAMGWYREAPGKERELVASITSGGGRTYYADSVKGRFTISRDNAKNTVYLQMNSLKPEDTAVYYCNVDVSLSKFGSVLYDYWGQGTQVTVSS”: the “polyreactivity (PSR sort gate)” value was “low polyreactivity”.
Under “QVQLVESGGGLVQAGGSLRLSCAASGRIYVIYGMGWYRQAPGKERELVATISWSGSSTSYADSVKGRFTISRDNAKNTVYLQMNSLKHEDTAVYYCNAPVQSETFDYWGQGTQVTVSS” stands “high polyreactivity”; under “QVQLVESGGGLVQTGGSLRLSCAASGSIFGEYAMGWYRQAPGKEREFVADITWSDGSTYYADSVKGRFTISRDNAKNTVYLQMNSLKPEDTAVYYCAADSVLDRPVLYLWPWYLGDYWGQGTQVTVSS”, “low polyreactivity”.
Under “QVQLVESGGGLVQAGGSLRLICAASGSILSINGMGWYRQAPGKERELVATIDGSDGSTFYADSVKGRFTISRDNAKNTVYLQMNSLKPEDTAVYYCAAENFWQTKEYDYWGQGTQVTVSS” stands “low polyreactivity”; under “QVQLVESGAGLVQAAGSLRISSAHSGFSFTYNAMGWYRQAPGKVTEFVASISRSGGRTYYADSVKGRFTISRDNANNTVYLQMNSLKPEDTAVYYCAARNAYVYGMDSWGKGTQVTVSS”, “low polyreactivity”; under “QVQLVESGGGLVQAGGSLRLSCAASGSTFGFNAMGWYRQAPGKERELVAAISRSGGSTYYADSVKGRFTISRDNAKNTVYLQMNSLKPEDTAVYYCAVGYRYLKWVDYWGQGTQVTVSS”, “high polyreactivity”.
Under “QVQLVESGGGLVQAGGSLRLSCAASGRIFDINAMGWYRQAPGKEWELVAAISRGGSTYYADSVKGRFTISLDNAKNTVYLNMNSLKPEDTAVYYCNIYRYRGSTVFDGYDYWGHGTQVTVSS” stands “high polyreactivity”; under “QVQLVESGGGLVQAGGSLRLSCAASGSTFRYYAMGWYRQAPGKERELVAAITQSGGITYYADSVKGRFTISRDNAKNTVYLQMNSLKPEDTAVYYCAKRYYVDYDYWGQGTHVTVSS”, “low polyreactivity”; under “QVQLVESGGGIVQAVGSLRLSCAASGSTFRLYAMGWYRQAPGKERELVAAISSNGVRTYYADSVKGRFTISRDNAKNTVYLQINSLKPEDTAVYYCAARVYPAYPRGYDYWGQGTQVNVSS”, “high polyreactivity”.
Regarding “QVQLVESGGGLVQAGCSLRLSCAASGSIYPYAMGCYRQAPGKESELVAAINFNGGRTYYAHSVNGRFTISRDNAKNTVYLQMTSLKPDVTAFYYCAARISVYSTLPNDFDYWGQGTQVTVSS”, the “polyreactivity (PSR sort gate)” value is given as “high polyreactivity”.
Under “QVQLVESGGGFVQAGGSLRLSCAASGRIFRYYAMGWSRQAPGKERELVAAINSGGSTKYADSVKGRFTISRDNAKNTVYFQMNSLNPEDTAVYYCNKDHAFSRYWYGGFDYWGQGTQVTVSS” stands “high polyreactivity”; under “QVQLVESGGGLVQAGGSLRLSCAASGFTFGYYAMGWYRQAPRKERELVAAISSSSGRTHYADSVKGRFTISRDNAKNTVYLQMNSLKPEDTAVYYCAAEFYYLYYYWGQGTQVTVSS”, “high polyreactivity”; under “QVQLVESGGGLVQAGGSLRLSCAASGRIFRTYAMGWYRQAPGKERELVAAISGRGGNTYYADSVKGRFTSSRDNAKNTVYLQMNSLKPEETAVYYCAASKPARDTQQRWVYAGYDYWGQGTQVTVSS”, “high polyreactivity”.
To “QVQLVESGGGLVQAGGSLRLSCAASGFTFPYYAMGWYRQAPGKERELVAAISKSGGSTYFADSVKGRFTISRDNAKNTVYLQMNSLKPEDTAVYYCAAQGGSKYRGYYYWGQGTQVTVSS” belongs “high polyreactivity”; to “QVQLVESGGCLVQAGGSLRLSCAASGFIFSYYALGWYRQAPGKERELVAAITWDGGSTYYADSVKGRFTISRDNAKNSVYLQMNSLKPEDTAVYYCNAYYYYRRPLEGGYWGQGTQVTVSS”, “low polyreactivity”.
Under “QVQRVESGGGLVQAGGSLRLSCADSGFIFRRYAMGWYRQAPGKERELVAAITSSGGTTYYADSVKGRFTISRDNAKNTVYLQMNSLKPEDTAVYYCNAVRGVYARRSDYWGQGTEVTVSS” stands “high polyreactivity”; under “QDHLVESGGGLVQAGGSLRLSCAASGSTFGKNTMGWYRQAPGKERELVAAISRGVSTYYADSVKGSFTISRDNAKNTVYLQMNSLKPEDTAVYYCAAQEAYRWYGYYYWGQGTQVTVSS”, “high polyreactivity”.
On to “QVQLVESGGGLVQAGGSLRLSCAASGFTFYSYTMGWYRQAPGKERELVAAITRGGRTYYADSVKGRFTISRDNAKNTVYLQMNSLKPEDTAVYYCAARVGSWTQSFGYDYWGQGTQVTVSS”, for which the “polyreactivity (PSR sort gate)” value is “high polyreactivity”.
Under “QVQLEESGVGLVQAGGSLRLSCAASGSTFQTYVMGWYRQAPGKERELVAAISSGGSTNYADSVKGRFTISRDNAKNTVYLQMNSLKPEDTAVYYCAKRWPYFRRGKDGYWGQGTQVTVSS” stands “low polyreactivity”; under “QVQLVESGGGLVQAGGSLRLSCAASGRILAGYAMGWYRQAPGKERELVAVISVGTGSTYYADSVKGRFTISRDNAKNTVYLQMNSLKPEDTAVYYCAADPGPYKELEYGYWGQGTQVTVSS”, “low polyreactivity”; under “QVQLVESGGGLVQAGGSLRLSCAASGSIFTVYGMGWYRQAPGKERELVAAISRSGGSTYYADSVKGRFTISRDNAKNTVYLLMNSLKPEDTAVYYCAADVYRTWFWWFDYWGQGTQVTVSS”, “high polyreactivity”.
Under “QVHLVESVGGLVQAGGSLRLSCAASGRTSGANAMGWYRQAPGKERELVAAIRYSVGSTYYADSVKGRFTISRDNAKNTVYLQMISLKPEDTAVYYCAARGYPKRGGYWGQGTQVTVSS” stands “high polyreactivity”.
“QVQLVESGGGLVQAGGSLRLSCAASGLTLKRNAMGWYRQAPGKERELVAAISGRGGSTYYADSVKGRFTISRDNAKNTVYLQMNSLKPEVTAVYYCAATVQYSPIYDYWGQGTQVTVSS”: the “polyreactivity (PSR sort gate)” value was “high polyreactivity”.
“QVQLVESGGGLVQAGGSLRLSCAASGSIFQWNAMGWYRQAPGKERELVAAISSGTSTNYADSVKGRFTISRDNAKNTVYLQMNSLKPEDTAVYYCAAEGRGWAAFEVGYWGQGTLVTVSS”: the “polyreactivity (PSR sort gate)” value was “low polyreactivity”.
To “KVQLVESVGGLVQAGGSLRLSCAASGFTFCRNTMGWYRQAPGKEREFVAAITVTGGSTYYADSVKGRFTISRDNAKNTVYLQMNSLKPEDTAVYYCAAGWTSAYVNYDYWGQGTQVTVSS” belongs “low polyreactivity”.
